Data taken from paper PMC4952014.

Target: immobilized trimeric proteins
Assay: SPR; reverse set-up: JR-FL gp120 (900 RU), JR-FL FD gp145 (1400 RU), SF162 FD gp145 (900 RU) or Soc-V1V2JR-FL amine-coupled to CM5 chips; Siglec-1 injected in 10 mM HEPES, 150 mM NaCl pH 7.4, 30 µl/min; some runs with 50 nM Siglec-1 and lactose, 6'-sialyllactose or sialic acid

Siglec-1 (recombinant protein used for SPR) (from UniProt Q9BZZ2 20-1709) (receptor)
fold less affinity than trimeric proteins on immobilized Siglec-1: 10 to 20 fold
